A protein production outcome set (Wang et al. 2014)

Assay: label from the status in PepcDB records
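Note: failed if final PepcDB status was selected cloned or expressed and not failed if soluble or beyond.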

Sequence | protein production
MLGELDLATVILMQKCSYIVGLLSFIYLKMSNRGLPGPVHLAAGFAAMTVGSTLAGYGEWKILSPALWELGSVLFGIAGYALIWLGLKTLSDGRFVNRKTILFTCLVALLAIGVALQVAGNNTFRAALFNGCAALAYLGGAGVLFARWRKEPLLSRLALGAITGVSGLISLAVMKSVLFPGYASINLVTAFFFIIMLNFAISLFVMMLVAERSERKLLVLANTDPLTGVKNRRFFFQTMPAAPDPADAAMLLDIDHFKSINDRFGHAVGDSVLQEVARRISGSIRGGDVLARYGGEEFIIFLPGAGVDKACMIGERIRDAVAINEVDCGGLRVGVTISIGVATTGDMRCDLQMLAEKADRALYRAKTEGRNCVREALAA | failed
MQLHELVNTLGQDLQRRYGEKVHKLTLHGGFSCPNRDGTIGRGGCTFCNVASFADEEVQIKSIHEQLKDRAGEIHRAKKYLAYFQAYTSTYAEVQVLKNMYEEALKAADIVGLCVGTRPDCVPDSVLDLLSDYVNQGYEIWLELGLQTANNDTLKRINRGHDFECYAEITQRARALGIKVCTHLIVGLPKETRDDNIETLQKVLAVGTDGIKLHGLHIVEGSTMAKAWRAGRLEAPGLEEYVAIASEMIRMTPADVVFHRVSSAARRPTLLSPLWCENRWLAMTEIGRALNKDGAQGSLIGKPFIYTKPELKADCSINN | failed
MRTTAAEEAGLETETARRRFSRASLVNVAGNAVKILVEGAVGLAFGSVALLADAAHSVADLVASAVVLVWGRSVYTDPDENHPHGHQRVEPLAALFVGSLIVLLGLNLFYESATGLVAGPEVQFHPLLVGALLFAMADMYLLYWYTTHINESVGSSALEALAIDCRNDIYTTIAALCGVIGVFFGYPLFDAVAGGLVSVLVVYQGFEISRENVSYLVGASPSDQQRQRVVETLTDHPAVHGAHDVAVFYDGTDIEVEAHVEVDGELTLVEAHDIETELVSALRSLESVGDVHLHLDPAGIGEWKDAAVNEQRGPETQTGSPKQ | failed
MASLIMTTPFPGSVTACKKTNNLSVQRAFKVTCMQTEKPLEELYNVKVERKVSQKRLEELGVSRWSVWKTGKCKLPWDWQVDQLVYIEQGEVRVVPEGSKRYMQFLAGDLVRYPKWLEADLFFNAPYIERYCFKAYGDD | failed
MKHCLKFALLAGFALLLTACGFHLRGLGGSLKPLPFSTMYLEATGKSIEADLRTVFARDPKLSVMSEPKGAQAVVSVVSENQSKDILTINTGGRINEYQLTYTVVVRTVIGGVPVDPDMVVTVRRSLNYSDNQVLGKQQEEDLLWADARRDAAEQIVRRLAYLKVPAAPLAGPVSVKPDAVPQPLEHHHHHH | not failed
MSTYYNDHLAAAEKDISSSNFCNLVDASVMLYDEEHRDLLPKKVNSRCQAKTKKQEKESDKRFFDLFPKKRRTSVVTVRNPEQNQQNLHRVSTSSSLLDLNTIPGDSSDPRNELQGLLSSSSSSFLGDYERKTPQNASSSSTLLAEYNTEMANPPNPNSETSLKRKHSDSEPKKAKTPYSWKGREAPEWLVKMMGTMQGSEGPRLIYEKTLTETDVKPVQSRLLMPFNTLIRNDFLTPVELRILLELEDDTDGVGATLVDPWEVKWGVILKKREMKKYSGKGSLNYAIICGWNDIVEANVLEKDDDISIWSFRRGRNGILSFALVLPPPPDMA | failed
MSRRDQLFSAMTASYVIAVTLAIVIAAIFAPVIWNGVPSGGDDDPSVAVITLRGGTTDANVNAVKQDLREARTNESIEAVVLRVDSPGGPVDSSEEFYLAVNRTASEMPVVAYVEGTAASGGYYGITPADEIVVKPSSNVGSIGVIVQAPLSLIEQVEQQGETFVRSGPDKAQISKDSLREDIEVLQRSFVGTVMRHRGEQLTVSREEVANGGTYLGAQATENGFADRIGDTGLAIERAAALSDDIEGDQYDVVYQGSGGAEFNVIIVPAGAETVQGANNVTYLVHPDNSETTFREPVKYYAVWGIPAEDNNATVIRND | failed
GLPRRAVTQLVEQPLVVVDFLAHITAQGGHAAVIGWKDLAYAGVIDSGGVCENIIAIPNPGTEPLNVAAVLCEGLDVVVYKGPEISLSPTRARPLLGKLRQGTAALVMVGTKVSSPALSVDAEITDYVGIGAGSGRIRGVEMQVRAVSKTHGVRSGKVLISRP | failed
MEAEEIIGLLKKGDLEKAKDALSKEIDNLSDEELKEILEVAESVAKEKEDIELLKLVVYYYAEFFGIDKLEEFEGIAKEKGYEGLMHLADLYSLLGYPEKALDIYRELLKTDLIKEKEHIGEIYYGIATIHDELQEYDKALEAINEAVKAFKESNNVEKLHQAEVYRAYITFENGDRDKAKEILAGLLPHVTNREIKAQIHLVFKEIFEDEENYEAAIQESLYSLIEGIDTEVFDLAFDGLIDLIWELILEDKFEEIYKSMPMFKVAIPSLKDFFEGVRRIAMYREGKIGREEVSEILMKVKDERLVSILEFLGEAEV | failed
MTRSERKPLLMLMVNMFVVMMGIGLVIPILPYYIEAFGASSVELGLLIAIFSFMQFLLAPFWGRLSDKVGRKPLIAVGMFGFAVAEFIFAFATQFWMLFVSRILAGAFGSAVMPAAMAYVSDRTSEEKRGHGMGLLGASMALGIVVGPGIGGWLAEFSLATPFLFAGFAASFAAIFSLLWLPESLPLEKRKTEVEPVNQFVQMWQAVRSPIGFLLFLVFGLSFGLANFQTIFGIFALHRFHYNPSEVGFIMVLTGIVGAIAQGSLVGRLTERYGEEKVVLGSLSLSGIGFLIMMLAFNYWTVIATTCLFFLGNSILRPAVQSFLSKMAGDQQGMIMGLNNSILSLGNVVGALLAGLLFEWNMFLPYTVGAFVMFASLGATFRWLSKRASQGKHPEKSSP | failed
MKNRTKSRWKKIVLGIGLFLAVLVIGLTIFIKNSTYQATDSALKISQSATQEKNYDYYTNGQKNDTALIFYPGALVAPASYSEWAQEVATKGYDVYVVHFPLNLAVLAPNAAEQIIKDHPQQNFVLAGHSLGGVMASRFVAENEQRIKGMIYLASYPDEKGALNKKNLPVLSITATNDGVLNWTSYQKAKQFLPKDTQYVSIEGGNHAGFGNYGVQKGDSKATISNEQQQTEISQLIVAWLQSRPNK | failed
MELLNVLAAAFGAFALGSVWYMVLAEPWMQDAKVPRGPDGRPEGGMTPGIFAASFVLQLIVAGMMRHVFALSGIDSPGAGIVAGIGVGLFFIAPWITLNNLYGMRPLRLSLIDGGYATLACAVMGLILTLF | failed
MDVSNKDAKRTDTIILANFDPITKEAKLISIPRDTRVKIGGKSQKINAAYPIGGEKLVKQLVGNILGVKVDYVVKVDYEGFRGIIDAIGGIDMYIEQDMNYDDPGQDLHIHFNKGETVHLDGKKAEEFFRWRKNNDGTGLVNGDVDRIKNQQKFINAVIDKVLSVSTITKIDSIAEILNKNIETNIPLDVTVAYGLKGLETDKNNIKMMTLPGEGKYVGNVSYYIPDEKATKELRSQLNSSNLSGRKNVIPSAARGDLSIKVLNCTKINGLAANVQKQLNENGYDKVDLEHHHHHH | not failed
MKFAFVFPGQGSQSVGMLNAFADVAVVRETLDEASDALGQDIGKLIADGPADELNLTTNTQPVMLTAAYACYRAWQQAGGAQPSIVAGHSLGEYTALVAAGAIAFRDALPLVRFRAQAMQTAVPVGVGGMAAILGLDDDTVRAVCAEASATGVVEAVNFNAPAQVVIAGTKAGIEKACEIAKEKGAKRALPLPVSAPFHSSLLKPASDKLREYLAGVDVKAPKISVVNNIDVAVVSDPAAIKDALVRQAAGPVRWVECVQHIAREGVTHVIECGPGKVLAGLTKRIDGNLVGASVFDPASLDEALKLAAA | not failed
MPVKTFVFDQIQKLMGWCPACRKMTLQTEQPCNFINTAQISGKTGNIPEFRTSNIIFPANTTLVFVLFYICISLLLRYPEDISLFLAGLFLLNIFYYFLYLKTLEAAVLVDRFGVHMHAFRLKKFEIPFEEIESMKLCRLEKRSKKMSLLLVIGGIALCGFFVYIAVAEGEWKPLLLLVSIIPLLLLVEMKQKMRFWNLNTQLYIKTRHKKLYEWTPYYSLITDEASAEELKSFIERHL | failed
VSVIMPVLNEERHLRGAVQAILAQEYDGEMEVVIAIGPSSDRTEEIAAELVREDPRVHTVPNPTGRTPAALNAAIKASRHPVVVRVDGHGMLSPNYIATAVRLLAETGAQNVGGIMHAEGENDWEHAVAAAMTSKIGVGNAAFHTGGEAGPAETVYLGVFRREALEQQGGYNEEFIRAQDWELNFRIREAGGLIWFSPELKVSYRPRPSVRALAKQYKDYGRWRHVVARYHEGSINLRYLAPPTAVCAIAAGVVVGLALTPWGLVVPGGYLAAIALGS | failed
LADVEARARIAIDAAGMGTWDLRPQEGLLLWDDRCKTLFGVPTSTEMSLEVFYAGIYPDDLPLVREAVEHAMRPESDGHYRVEFRIAQPNGLEPRWLLSSGQSQFVDDQCVRFSGVLQDIHAQRQATQALRQLNEMLGER | not failed
MPRALPRLPRPLLAVLSLSLTLGIAQADTAPLFSADGYRTTHYRSPTPQQVEGGQVVDTATLQSLLGQTPRPVLIDVYRRQWLQGRFIEDQPHSNLPGSLWLANTGDGELSPAWQDYFVRNLQKATAGHLDQPLVFYCRSDCWLSWNAVKRAKALGYNNLYWYRDGLDAWQQANLPLQPAQPVPFP | failed
MIYFIRKKKWLKQLEKGEAMKYAILIGDGMADYPIEKLGNRTILQAARTPAMDSIAARGRAGLAKTVPDSFPPGSDVANMSILGYDPATYYSGRAPLEAASMGVALAADDVAFRCNLITTEHGMIKDYSAGHISSDEAEILIDTLDYELSTENIRFYPGISYRHLIVAGNNLGAETECTPPHDITGEKIDKYLPRGKDGEFFSELIEASKVVLELHPVNLKRVEEGKNPANSIWVWGQGYAPKFTAFMKLYGKKGAVISAVDLLKGIGIYAGLDVIEVHGATGYLDTNYEGKVRAAIEALKTRDLVFVHVEAPDEAGHEGSIEKKLKAVEDFDSRIVAPILEYAENSDEPFTILVLPDHPTPISVKTHTRDPIPFAIYRTDKPETDNVEAFDEESVKNGSMGLVKASDLIGILIKS | failed
MLNLQRMSLFIAVVDSGSFTAAAAASGQTKAVVSFNIRQLEKELGVTLLLRSTRRLTLTDAGVLFYQKGVNLLNAAKNLQDEVRASHSGLGGELRITTTSEFGEQVVIPVLAQFSQRHPDLRIRHMSSSHHADLIAERFDVAIRLGSLADSRYRAALISRFTILPVAAPQWLARNPVSSLESLAQAEWIIHERLPTPLRWTVTNNHGQHSRLEISKAGKISVDSARSLMAFALAGSGVALLPQWLVNTALEDGTLIHLLPDYHFPRQGIYAVYPDARHVSTKVRAFIDFLRSQWDCGEHAPSS | failed
MSEVKKTKVHLISGFLGTGKTTALKSLMAQKDPNEKWVIIVNEFGEIGIDGAVLSDNGIPVAEIAGGCLCCTAGPQMGVTVQKMLRDAKPDRLMIEASGLAHAASVIDELKAKPLDSLLEIGAVFTVVDPRQFINPDYAQQALYKDQIGICDVLAASKTDLCTPEQLAEFHDKAAKLFPPKAKVVEVQNAQLDIQWLDIPVVEKSRYRLKALPDNTMGFQSQGFTFPAGRDFNGEKLTNFFNDLPKMTEGLVRAKGVFQVLGTWVWLNWVDGQWGANQVSWRRDSRFELIAKSFDADLIEQKLKDALELEHHHHHH | not failed
